What was measured:
[1] = biological target: Equine IL4R-ECD_C-HuFc_His6 (processed) (equine); assay: Western blot, reducing and non-reducing SDS-PAGE
Description: (§1) Cross-reactivity of Clone I antibody to feline, equine, murine, and human IL4R was also investigated. Canine IL4R-ECD_C-HuFc_His6 (SEQ ID NO: 109), feline IL4R-ECD_C-HuFc_His6 (SEQ ID NO: 111), equine IL4R-ECD_C-HuFc_His6 (SEQ ID NO: 113), murine IL4R-ECD_C-HuFc_His6 (SEQ ID NO: 115), and human IL4R-ECD_C-HuFc_His6 (SEQ ID NO: 117) (0.1 μg/lane) were each separated by SDS-PAGE under reducing (+DTT) or non-reducing (−DTT) conditions. The proteins were transferred to PVDF membranes and the blots were probed with Clone I antibody (0.3 μg/mL) and visualized by goat anti-mouse IgG-HRP (FIG. 4A). As a control, the blot was stripped and probed with goat anti-human IgG Fc-HRP to visualize the presence of the IL4R-ECD proteins (FIG. 4B). Clone I antibody immunoreacted with canine IL4R-ECD_C-HuFc_His6 and to a lesser extent with feline IL4R-ECD_C-HuFc_His6 under non-reducing conditions (FIG. 4A, lanes 5 and 1, respectively).

[2] = biological target: Murine IL4R-ECD_C-HuFc_His6 (processed) (murine); assay: Western blot, reducing and non-reducing SDS-PAGE
Sequence of Murine IL4R-ECD_C-HuFc_His6 (processed) (murine) (chain, as listed by the source limits assumed): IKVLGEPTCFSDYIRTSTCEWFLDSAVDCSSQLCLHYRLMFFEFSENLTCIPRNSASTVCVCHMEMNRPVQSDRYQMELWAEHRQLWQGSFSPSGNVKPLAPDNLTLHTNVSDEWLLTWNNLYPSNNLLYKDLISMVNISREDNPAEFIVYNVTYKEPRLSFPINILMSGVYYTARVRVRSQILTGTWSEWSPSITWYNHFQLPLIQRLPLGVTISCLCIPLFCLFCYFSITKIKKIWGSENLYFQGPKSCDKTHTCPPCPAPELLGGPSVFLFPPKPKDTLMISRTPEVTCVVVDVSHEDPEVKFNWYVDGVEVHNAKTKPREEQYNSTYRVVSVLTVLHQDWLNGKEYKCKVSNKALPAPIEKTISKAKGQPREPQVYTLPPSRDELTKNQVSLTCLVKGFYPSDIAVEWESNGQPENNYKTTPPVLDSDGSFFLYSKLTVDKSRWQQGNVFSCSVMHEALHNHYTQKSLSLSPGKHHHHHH
Description: as §1

[3] = biological target: Human IL4R-ECD_C-HuFc_His6 (processed) (human); assay: Western blot, reducing and non-reducing SDS-PAGE
Sequence of Human IL4R-ECD_C-HuFc_His6 (processed) (human) (chain, as listed by the source limits assumed): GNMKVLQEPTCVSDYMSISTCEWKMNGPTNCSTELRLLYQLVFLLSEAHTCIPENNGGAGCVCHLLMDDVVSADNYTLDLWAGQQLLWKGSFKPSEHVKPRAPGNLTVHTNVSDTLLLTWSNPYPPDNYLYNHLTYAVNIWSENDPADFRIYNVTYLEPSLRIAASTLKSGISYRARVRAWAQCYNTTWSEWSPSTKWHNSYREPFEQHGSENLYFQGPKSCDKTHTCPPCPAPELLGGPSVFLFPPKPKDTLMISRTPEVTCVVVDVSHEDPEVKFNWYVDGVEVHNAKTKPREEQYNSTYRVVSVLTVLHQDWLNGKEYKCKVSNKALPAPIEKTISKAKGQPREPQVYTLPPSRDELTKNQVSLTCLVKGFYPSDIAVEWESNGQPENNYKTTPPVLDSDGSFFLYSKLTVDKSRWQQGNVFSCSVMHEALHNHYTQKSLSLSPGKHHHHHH
Description: as §1

[4] = biological target: Canine/Human IL4R-ECD_C-HuFc_His6_Hybrid1 (canine/human hybrid); assay: Western blot, non-reducing, 293 supernatant concentrated 3-fold
Sequence of Canine/Human IL4R-ECD_C-HuFc_His6_Hybrid1 (canine/human hybrid) (chain, as listed by the source limits assumed): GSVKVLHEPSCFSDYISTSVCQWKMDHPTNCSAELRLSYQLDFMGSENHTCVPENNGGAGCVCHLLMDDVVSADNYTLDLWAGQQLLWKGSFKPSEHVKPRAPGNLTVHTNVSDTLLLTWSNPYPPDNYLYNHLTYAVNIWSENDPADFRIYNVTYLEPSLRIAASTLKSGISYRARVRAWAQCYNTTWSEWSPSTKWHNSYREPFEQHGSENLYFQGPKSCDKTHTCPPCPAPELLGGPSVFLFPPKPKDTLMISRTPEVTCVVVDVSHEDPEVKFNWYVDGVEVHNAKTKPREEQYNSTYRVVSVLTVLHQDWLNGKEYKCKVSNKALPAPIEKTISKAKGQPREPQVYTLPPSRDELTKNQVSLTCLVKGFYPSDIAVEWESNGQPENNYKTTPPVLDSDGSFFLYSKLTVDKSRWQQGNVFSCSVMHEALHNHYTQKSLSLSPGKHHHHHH

[5] = biological target: Canine/Human IL4R-ECD_C-HuFc_His6_Hybrid6 (canine/human hybrid); assay: as above
Sequence of Canine/Human IL4R-ECD_C-HuFc_His6_Hybrid6 (canine/human hybrid) (chain, as listed by the source limits assumed): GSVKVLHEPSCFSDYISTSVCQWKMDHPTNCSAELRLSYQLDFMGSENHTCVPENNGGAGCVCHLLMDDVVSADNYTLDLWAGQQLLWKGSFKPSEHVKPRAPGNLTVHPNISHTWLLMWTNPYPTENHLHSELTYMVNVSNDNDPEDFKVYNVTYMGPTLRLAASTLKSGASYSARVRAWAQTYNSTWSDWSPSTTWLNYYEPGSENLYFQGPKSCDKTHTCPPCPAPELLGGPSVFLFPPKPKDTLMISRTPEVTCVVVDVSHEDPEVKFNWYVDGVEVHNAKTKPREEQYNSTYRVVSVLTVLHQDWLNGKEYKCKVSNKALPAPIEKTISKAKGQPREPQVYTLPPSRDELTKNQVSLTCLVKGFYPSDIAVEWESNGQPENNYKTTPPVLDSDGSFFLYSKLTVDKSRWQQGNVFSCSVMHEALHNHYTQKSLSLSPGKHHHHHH

[6] = biological target: Canine/Human IL4R-ECD_C-HuFc_His6_Hybrid13 (canine/human hybrid); assay: as above
Sequence of Canine/Human IL4R-ECD_C-HuFc_His6_Hybrid13 (canine/human hybrid) (chain, as listed by the source limits assumed): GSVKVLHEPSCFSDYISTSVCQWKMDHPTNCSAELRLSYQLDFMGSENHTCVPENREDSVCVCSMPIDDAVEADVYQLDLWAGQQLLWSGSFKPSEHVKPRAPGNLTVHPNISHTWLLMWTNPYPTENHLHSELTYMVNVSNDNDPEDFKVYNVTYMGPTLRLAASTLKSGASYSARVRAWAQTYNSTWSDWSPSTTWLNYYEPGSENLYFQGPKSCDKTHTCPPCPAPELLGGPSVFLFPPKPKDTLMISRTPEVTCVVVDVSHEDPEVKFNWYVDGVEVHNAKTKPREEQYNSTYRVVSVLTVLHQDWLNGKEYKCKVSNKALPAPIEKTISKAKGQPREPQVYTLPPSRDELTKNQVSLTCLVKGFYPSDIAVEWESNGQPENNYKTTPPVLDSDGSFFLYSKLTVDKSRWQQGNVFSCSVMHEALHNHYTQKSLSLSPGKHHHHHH

[7] = biological target: Feline IL4R-ECD_C-HuFc_His6 (processed) (feline, biotinylated in the Octet assay of Example 10); assay: BLI (Octet): biotinylated feline IL4R-ECD_C-HuFc_His6 on streptavidin tips, Clone I 25 ug/mL, 1:1 model
Sequence of Feline IL4R-ECD_C-HuFc_His6 (processed) (feline, biotinylated in the Octet assay of Example 10) (chain, as listed by the source limits assumed): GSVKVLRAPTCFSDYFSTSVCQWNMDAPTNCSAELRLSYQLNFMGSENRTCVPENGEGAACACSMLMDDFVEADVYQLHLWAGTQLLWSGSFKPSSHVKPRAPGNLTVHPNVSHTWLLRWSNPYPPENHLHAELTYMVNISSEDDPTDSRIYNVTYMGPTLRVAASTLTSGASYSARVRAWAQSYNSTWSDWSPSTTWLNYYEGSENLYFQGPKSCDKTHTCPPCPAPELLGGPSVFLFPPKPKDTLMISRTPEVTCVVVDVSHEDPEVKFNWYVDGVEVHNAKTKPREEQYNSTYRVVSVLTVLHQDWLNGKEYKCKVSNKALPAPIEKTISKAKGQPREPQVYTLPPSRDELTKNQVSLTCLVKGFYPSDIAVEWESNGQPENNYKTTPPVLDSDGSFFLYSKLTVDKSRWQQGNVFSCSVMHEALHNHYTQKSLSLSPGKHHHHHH
Description: This finding was consistent with in vitro binding affinity measured by Octet Biosensor. Biotinylated feline IL4R-ECD_C-HuFc_His6 (SEQ ID NO: 111) was captured on streptavidin sensor tips. The association of Clone I antibody (25 μg/mL) and feline IL4R-ECD_C-HuFc_His6 was monitored for 600 seconds. Dissociation was monitored for 600 seconds. A buffer only blank curve was subtracted to correct for any drift. The data were fit to a 1:1 binding model using ForteBio™ data analysis software to determine the kₒₙ, koff, and the Kd. The buffer for dilutions and all binding steps was 20 mM phosphate, 150 mM NaCl, pH 7.2.

Sequence of Equine IL4R-ECD_C-HuFc_His6 (processed) (equine) (chain, as listed by the source limits assumed): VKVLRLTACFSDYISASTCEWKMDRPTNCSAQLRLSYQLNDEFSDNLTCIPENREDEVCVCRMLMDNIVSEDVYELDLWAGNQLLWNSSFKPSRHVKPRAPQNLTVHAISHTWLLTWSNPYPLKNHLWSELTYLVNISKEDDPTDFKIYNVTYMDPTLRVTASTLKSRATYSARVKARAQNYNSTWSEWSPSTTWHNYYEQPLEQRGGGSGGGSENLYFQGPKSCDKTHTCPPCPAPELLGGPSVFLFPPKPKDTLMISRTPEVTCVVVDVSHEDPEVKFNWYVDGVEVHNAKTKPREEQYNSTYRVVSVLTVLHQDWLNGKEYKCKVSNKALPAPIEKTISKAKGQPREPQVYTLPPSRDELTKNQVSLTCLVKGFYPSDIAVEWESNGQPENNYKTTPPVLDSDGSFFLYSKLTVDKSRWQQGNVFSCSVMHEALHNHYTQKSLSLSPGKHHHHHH

binding result [4]: binds
binding result [5]: binds
binding result [6]: binds
Kd [7]: 1.1 nM
B1: Clone I antibody (mouse monoclonal anti-canine IL4R) (antibody, mouse IgG1, kappa, V domains shown)
VH: EVQLQQSGPELVKPGASVKMSCKASGYTFTSYVMHWVKQKPGQGLEWIGYINPNNDGTFYNGKFKGKATLTSDKSSSTAYMELSSLTSEDSAVYYCAAFYYGFAYWGQGTLVTVSA
VL: DIVLTQSPSSLSASLGERVSLTCRASQEISGYLSWLQQKPDGTIKRLIYAASTLDSGVPKRFSGSRSGSDFSLTISSLESEDFADYYCLQYASYPWTFGGGAKLEIKR
notes: Mouse IgG; also called anti-IL4R-mAb Clone I
binding result [1]: no binding (tested: Clone I 0.3 ug/mL; 0.1 ug/lane)
binding result [2]: no binding (tested: Clone I 0.3 ug/mL; 0.1 ug/lane)
binding result [3]: no binding (tested: Clone I 0.3 ug/mL; 0.1 ug/lane)

Source: patent US20220049002A1 (KINDRED BIOSCIENCES, published 2022)
